Conditions in all cases: remark: other sources report otherwise
In assay [1] the target is HLA-A24.02 (human). Put plainly: pMHC-I complex dissociation at 37 C, 125I-b2m, half-life.
For assay [2], the target named is HLA-A24.02 (human). Put plainly: competition vs radiolabeled reference peptide on purified MHC I, gel filtration. (In general: Size exclusion chromatography separates by hydrodynamic size, large species first.)
The target in assay [3] is HLA-A02.01 (human). Put plainly: pMHC-I complex dissociation at 37 C, 125I-b2m, half-life.
Assay [4] concerns the target HLA-A02.01 (human). Put plainly: competition vs radiolabeled reference peptide on purified MHC I, gel filtration.
Assay [5] concerns the target HLA-A02.01 (human). The assay is described as follows: pMHC-I dissociation half-life, 125I-b2m.
Assay [6] concerns the target HLA-A24.02 (human). The assay is described as follows: pMHC-I dissociation half-life, 125I-b2m.
In assay [7] the target is HLA-A02.01 (human). Put plainly: competition with radiolabeled reference peptide, purified MHC I.
For assay [8], the target named is HLA-A24.02 (human). Described as above.
Assay [9] addresses HLA class I molecule A02.01. The assay is described as follows: pMHC-I dissociation half-life, 125I-b2m.
Assay [10] has as its target HLA class I molecule B08.01. Put plainly: pMHC-I dissociation half-life, 125I-b2m.
For assay [11], the target named is HLA-B07.02 (human). The assay is described as follows: pMHC-I complex dissociation at 37 C, 125I-b2m, half-life.
Assay [12] deals with HLA-B07.02 (human). Put plainly: competition vs radiolabeled reference peptide on purified MHC I, gel filtration.
The target in assay [13] is T1, HLA-A02.01 class I MHC molecule (prepared complex) (human). The assay is described as follows: dissociation of peptide-MHC-I complex at 37 C, 125I-labelled b2m, scintillation.
The target in assay [14] is T1, HLA-A02.01 class I MHC molecule …. The assay is described as follows: displacement of radiolabeled reference peptide from class I MHC, gel filtration; 'Affinity (nM)'.
Assay [15] has as its target HLA class I molecule A02.01. Put plainly: competition with radiolabeled reference peptide on purified MHC I.

The IC50 is the concentration that inhibits the measured activity by half. A low value points to greater potency. Regarding FLPSTLKSL, the Stability (T1/2 (h)) in the assay with HLA-A24.02 (human) [1] came to 1 h. In the assay with HLA-A24.02 (human) [2], this molecule returned an IC50 of 0.995 µM.

Take SVCFFFFSV: in the assay with HLA-A02.01 (human) [3], the Stability (T1/2 (h)) was found to be 9.4 h. This molecule showed an IC50 in the assay with HLA-A02.01 (human) [4] of 175 nM.

As for IMQLMPFGCL, the Stability (T1/2 (h)) was 0.5 h with HLA-A02.01 (human) [3] and 0 h with HLA-A24.02 (human) [1]. The figures for the IC50 in the assay with HLA-A02.01 (human) [4] and with HLA-A24.02 (human) [2] were 837 nM and 18.1 µM, respectively.

For CMGGMNWRPI, the Stability (T1/2 (h)) with HLA-A02.01 (human) [5] is 0.4 h; with HLA-A24.02 (human) [6], 0 h. The IC50 with HLA-A02.01 (human) [7] was 346 nM; with HLA-A24.02 (human) [8] it was 4450 nM.

As to FLQEQYHEA, the Stability (T1/2 (h)) in assay [9] came out at 9.5 h; in [10] it was 0 h.

Molecule LVVVGADGV returned a Measured stability with HLA-A02.01 (human) [5] of 0 h. The Measured Affinity in the assay with HLA-A02.01 (human) [7] was 977 nM.

For the molecule STVQLIMQL […, listing 1 of 2 here], in the assay with HLA-A02.01 (human) [3], the Stability (T1/2 (h)) came out at 0 h. For the same molecule, in the assay with HLA-A02.01 (human) [4], the half-maximal inhibitory concentration (IC50) is 8540 nM.

In the case of LVVVGACGV, the Measured stability in the assay with HLA-A02.01 (human) [5] came to 0.6 h. In the assay with HLA-A02.01 (human) [7], this molecule had a Measured Affinity of 667 nM.

SLPRFILMEL: the Stability (T1/2 (h)) with HLA-A02.01 (human) [3] stood at 0.5 h; with HLA-A24.02 (human) [1] it was 0.2 h; in the assay with HLA-B07.02 (human) [11], 0.4 h. Further, the half-maximal inhibitory concentration (IC50) with HLA-A02.01 (human) [4] is 26 nM; in the assay with HLA-A24.02 (human) [2], 2.77 µM; with HLA-B07.02 (human) [12], 583 nM.

In the case of MANGSLLNYL, the Stability (T1/2 (h)) in the assay with HLA-A02.01 (human) [3] and with HLA-B07.02 (human) [11] was 0 h throughout. The IC50 with HLA-A02.01 (human) [4] amounted to 1080 nM; with HLA-B07.02 (human) [12] it was 17700 nM.

YTLDVLERC came in with a Stability (T1/2 (h)) with HLA-A02.01 (human) [3] of 6.6 h.

In the assay with HLA-A02.01 (human) [5], MALNSEALSV displayed a Stability (T1/2 (h)) of 0.7 h. The molecule also registered an IC50 with HLA-A02.01 (human) [7] of 129 nM.

For the molecule LTINKEEAL, in the assay with HLA-A02.01 (human) [3], the Stability (T1/2 (h)) stood at 0 h. The molecule also displayed an IC50 with HLA-A02.01 (human) [4] of 4410 nM.

On to TQLARFFPI, for which the Stability (T1/2 (h)) in the assay with HLA-A02.01 (human) [5] and with HLA-A24.02 (human) [6] was 0 h in each case. The values for the half-maximal inhibitory concentration (IC50) with HLA-A02.01 (human) [7] and with HLA-A24.02 (human) [8] were 19 nM and 52 nM, respectively.

In the assay with HLA-A02.01 (human) [5], CMGSMNRRPI registered a Stability (T1/2 (h)) of 0 h. In addition, the half-inhibitory concentration (IC50) with HLA-A02.01 (human) [7] came out at 1990 nM.

IMQLMPFGC [EGFR_T790M peptide …, listing 1 of 2 here] returned a Stability (half-life (hr.)) in assay [13] of 22.2 min. The half-maximal inhibitory concentration (IC50) in [14] stood at 1.21 µM.

LIMQLMPFG [EGFR_T790M peptide …, listing 1 of 2 here] registered a Stability (half-life (hr.)) in assay [13] of 0 min. In addition, the IC50 in [14] stood at 3.34 µM.

As for MQLMPFGCLL, the Stability (T1/2 (h)) with HLA-A02.01 (human) [3] was 0.4 h; with HLA-A24.02 (human) [1], 0 h. The values for the IC50 with HLA-A02.01 (human) [4] and in the assay with HLA-A24.02 (human) [2] were 20 nM and 23.6 µM, respectively.

Consider NQRPILTII, for which the Stability (T1/2 (h)) with HLA-A02.01 (human) [5] amounted to 0 h. The concentration for half-maximal inhibition (IC50) with HLA-A02.01 (human) [7] worked out at 9610 nM.

For SLLNYLREM, the Stability (T1/2 (h)) in the assay with HLA-A02.01 (human) [3] was 3 h; with HLA-B07.02 (human) [11] it was 0 h. Besides, the results for the IC50 in the assay with HLA-A02.01 (human) [4] and in the assay with HLA-B07.02 (human) [12] were 87 nM and 1110 nM, respectively.

VQLIMQLMPF: the Stability (T1/2 (h)) in the assay with HLA-A02.01 (human) [3] and with HLA-A24.02 (human) [1] was 0 h in each case. Further, the values for the half-maximal inhibitory concentration (IC50) in the assay with HLA-A02.01 (human) [4] and with HLA-A24.02 (human) [2] were 5490 nM and 4.56 µM, respectively.

As to FLLALWECSL, the Stability (T1/2 (h)) in assay [9] worked out at 10.8 h; in assay [10] it was 0 h.

Take WMTETLFDI: the Stability (T1/2 (h)) with HLA-A02.01 (human) [5] was found to be 4 h; with HLA-A24.02 (human) [6], 0 h. For the same molecule, the 50% inhibitory concentration (IC50) in the assay with HLA-A02.01 (human) [7] is 14 nM; with HLA-A24.02 (human) [8], 713 nM.

As for QLIMQLMPF, the Stability (T1/2 (h)) in the assay with HLA-A02.01 (human) [3] was 0.3 h; with HLA-A24.02 (human) [1] it was 0.4 h. Also, the 50% inhibitory concentration (IC50) in the assay with HLA-A02.01 (human) [4] came to 227 nM.

Turning to STVQLIMQL [EGFR_T790M peptide …, listing 2 of 2 here], the Stability (half-life (hr.)) in [13] was 0 min. In [14], the IC50 is 7.26 µM.

For PLYGLLLEML, the figures for the Stability (T1/2 (h)) in the assay with HLA-A02.01 (human) [3] and with HLA-A24.02 (human) [1] were 0 h and 6.3 h, respectively. Besides, the results for the IC50 in the assay with HLA-A02.01 (human) [4] and in the assay with HLA-A24.02 (human) [2] were 797 nM and 0.444 µM, respectively.

In turn, YMANGSLLN displayed a Stability (T1/2 (h)) with HLA-A02.01 (human) [3] of 0 h. The molecule further came in with an IC50 with HLA-A02.01 (human) [4] of 4440 nM.

QLIMQLMPFG […, listing 1 of 2 here]: the Stability (T1/2 (h)) with HLA-A02.01 (human) [3] stood at 0 h. Also, the IC50 in the assay with HLA-A02.01 (human) [4] is 5930 nM.

On to FQNGKMALSA, for which the Stability (T1/2 (h)) in assay [9] and in assay [10] was 0 h in each case. This molecule also registered an IC50 in assay [15] of 6160 nM.

With SMNRRPILTI, the Stability (T1/2 (h)) with HLA-A02.01 (human) [5] was 0.3 h; with HLA-A24.02 (human) [6], 0 h. The results for the IC50 with HLA-A02.01 (human) [7] and with HLA-A24.02 (human) [8] were 1200 nM and 16300 nM, respectively.

The molecule LQSLPRFILM showed a Stability (T1/2 (h)) with HLA-A02.01 (human) [3] of 0 h. Moreover, in the assay with HLA-A02.01 (human) [4], the IC50 is 413 nM.

GMNWRPILTI came in with a Stability (T1/2 (h)) with HLA-A02.01 (human) [5] of 0.5 h. Besides, the IC50 with HLA-A02.01 (human) [7] stood at 282 nM.

WLHKRGKYI: the Stability (T1/2 (h)) worked out at 1.2 h with HLA-A02.01 (human) [3] and 0 h with HLA-B07.02 (human) [11]. Further, the results for the 50% inhibitory concentration (IC50) with HLA-A02.01 (human) [4] and in the assay with HLA-B07.02 (human) [12] were 1250 nM and 2650 nM, respectively.

Take LVVVGAVGV: the Measured stability with HLA-A02.01 (human) [5] was determined as 0.6 h.

In assay [15], LIVSRTLLL displayed a half-maximal inhibitory concentration (IC50) of 174 nM.

In turn, QLIMQLMPFG [EGFR_T790M peptide …, listing 2 of 2 here] returned a Stability (half-life (hr.)) in assay [13] of 0 min. The same molecule returned an IC50 in [14] of 5.21 µM.

As to ALQPLQPHA, in [15], the half-inhibitory concentration (IC50) turned out to be 604 nM.

Take RVAKIADFGM: the Stability (T1/2 (h)) worked out at 0.5 h with HLA-A02.01 (human) [3] and 0.2 h with HLA-B07.02 (human) [11]. The IC50 with HLA-A02.01 (human) [4] was 125 nM; with HLA-B07.02 (human) [12] it was 9720 nM.

With MQLMPFGCL, the values for the Stability (T1/2 (h)) with HLA-A02.01 (human) [3] and with HLA-B07.02 (human) [11] were 0.4 h and 0 h, respectively. The 50% inhibitory concentration (IC50) with HLA-B07.02 (human) [12] is 2270 nM.

In the assay with HLA-A02.01 (human) [3], IMQLMPFGC […, listing 2 of 2 here] had a Stability (T1/2 (h)) of 0.4 h. In the assay with HLA-A02.01 (human) [4], this molecule displayed an IC50 of 1610 nM.

On to LIMQLMPFG […, listing 2 of 2 here], for which the Stability (T1/2 (h)) with HLA-A02.01 (human) [3] was 0 h. For the same molecule, in the assay with HLA-A02.01 (human) [4], the half-maximal inhibitory concentration (IC50) was 3510 nM.

The values are drawn from patent US20220282217A1, “COMPOSITIONS AND METHODS FOR PREPARING T CELL COMPOSITIONS AND USES THEREOF” (priority 2019, published 2022).
